The source of these data is US20220162313A1 (Xencor, published 2022).

The assay concerns the target T1, human SSTR2 (human, UniProt P30874 1-369).
T1 construct: whole, on cells; also called human somatostatin receptor 2; cell surface human SSTR2
The assay can be described thus: flow cytometry on human SSTR2-transfected CHO cells, PE-labeled secondary antibody. The method, then: Cell surface binding of anti-SSTR2 antibodies and exemplary anti-SSTR2×anti-CD3 bispecific antibodies were assessed using human SSTR2-transfected CHO cells. Cells were incubated with indicated test articles for 45 minutes on ice and centrifuged. Cells were resuspended with staining buffer containing phycoerythrin (PE) labeled secondary antibody (2 μg/mL; goat anti-human IgG) and then incubated for 45 minutes on ice. Cells were centrifuged twice and then resuspsended with staining buffer. Binding was measured by flow cytometry (FIGS. 17A-P).
Cell surface binding of XmAb18087 and control anti-RSV×anti-CD3 bispecific antibody (XENP13245) were assessed using humanSSTR2-transfected CHO cells and cynoSSTR2-transfected CHO cells. Cell surface binding was also assessed using parental CHO cells as control. Binding was measured by flow cytometry using phycoerythrin (PE) labeled secondary antibody as generally described in Example 1C.
In general terms: A flow cytometer gives signals particle by particle.

T1 sequence (P30874 whole entry): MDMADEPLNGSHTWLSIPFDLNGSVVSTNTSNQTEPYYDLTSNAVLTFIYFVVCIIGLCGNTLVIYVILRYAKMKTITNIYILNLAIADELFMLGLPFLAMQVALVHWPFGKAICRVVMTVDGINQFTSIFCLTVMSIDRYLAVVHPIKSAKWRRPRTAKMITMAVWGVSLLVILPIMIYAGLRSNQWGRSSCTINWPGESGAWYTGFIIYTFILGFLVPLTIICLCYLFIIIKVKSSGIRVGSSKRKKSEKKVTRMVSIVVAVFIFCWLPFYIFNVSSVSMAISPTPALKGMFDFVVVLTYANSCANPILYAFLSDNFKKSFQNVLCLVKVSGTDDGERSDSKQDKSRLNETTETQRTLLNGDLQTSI

B1: XmAb18087 (bispecific antibody)
heavy: EVQLVESGGGLVQPGGSLRLSCAASGFTFSDYGMAWFRQAPGKGLEWVSFISNLGYSIYYADSVKGRFTISRDNAKNSLYLQMNSLRAEDTAVYYCARAPYDYDSFDPMDYWGQGTLVTVSSASTKGPSVFPLAPSSKSTSGGTAALGCLVKDYFPEPVTVSWNSGALTSGVHTFPAVLQSSGLYSLSSVVTVPSSSLGTQTYICNVNHKPSDTKVDKKVEPKSCDKTHTCPPCPAPPVAGPSVFLFPPKPKDTLMISRTPEVTCVVVDVKHEDPEVKFNWYVDGVEVHNAKTKPREEEYNSTYRVVSVLTVLHQDWLNGKEYKCKVSNKALPAPIEKTISKAKGQPREPQVYTLPPSREEMTKNQVSLTCDVSGFYPSDIAVEWESDGQPENNYKTTPPVLDSDGSFFLYSKLTVDKSRWEQGDVFSCSVMHEALHNHYTQKSLSLSPGK
chain: not shown
light: not shown
notes: also called XENP18087; XENP018087
For the molecule B1, the binding result is listed as “binds”.
